Measurements taken from PMC5059447.

Assays:
[1] = target: beak and feather disease virus capsid (Cap) protein, residues 14-247 (beak and feather disease virus (BFDV)); assay: crystal structure; 10-mer crystals: 1.1 M ammonium sulfate, Tris pH 8.5, 0.1 M iron chloride, 290 K; space group P212121; no ssDNA
[2] = target: beak and feather disease virus capsid (Cap) protein, residues 14-247 (beak and feather disease virus (BFDV)); assay: crystal structure; 60-mer crystals: 0.8 M Na/K hydrogen phosphate pH 7.4, 290 K; space group F432; no ssDNA
[3] = target: beak and feather disease virus capsid (Cap) protein, residues 14-247 (beak and feather disease virus (BFDV)); assay: crystal structure; 60-mer co-crystallised with ssDNA oligonucleotides labelled with AlexaFluor488 and AlexaFluor647; space group F432

## beak and feather disease virus capsid (Cap) protein, residues 14-247 (domain or fragment)
[1]
  stoichiometry N: 10
[2]
  stoichiometry N: 60
[3]
  stoichiometry N: 60
